Experimental data as given in patent US20240327516A1 (Zymeworks, published 2024).
Like-named read-outs stand apart in the source and are kept apart here.

Key:
[1] = biological target: T1, v31805, MH6T-TriTAC benchmark construct [MSLN (VHH) x Alb (VHH) x CD3 (scFv)]; experiment: SPR, BioRad ProteOn XPR36, 25 C, CD3 epsilon/delta-Fc captured on anti-Fc chip
[2] = biological target: T1, v31805, MH6T-TriTAC benchmark construct …; experiment: SPR, BioRad ProteOn XPR36, 25 C, CD3 epsilon/delta-Fc captured on anti-Fc chip; value as printed, implausible for ka
[3] = biological target: T2, CD3 on CD3+ Jurkat cells and primary human T cells (human, UniProt P07766 23-207); experiment: flow cytometry on human pan T cells, CD8+ gate (Alexa Fluor 647 anti-IgG-Fc, MFI)
T2 construct: whole, on cells; also called native CD3; CD3ε
Target sequence in this assay (P07766 23-207): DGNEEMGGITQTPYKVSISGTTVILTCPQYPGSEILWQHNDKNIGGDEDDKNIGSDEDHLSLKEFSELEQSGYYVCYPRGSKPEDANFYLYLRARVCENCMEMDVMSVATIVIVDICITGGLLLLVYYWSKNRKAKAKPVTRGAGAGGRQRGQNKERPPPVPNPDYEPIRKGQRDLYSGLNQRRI

[4] = biological target: T2, CD3 on CD3+ Jurkat cells and primary …; experiment: flow cytometry on human pan T cells, CD4+ and CD8+ cells together (Alexa Fluor 647 anti-IgG-Fc, MFI)
Target sequence in this assay (P07766 23-207): as above

[5] = biological target: T2, CD3 on CD3+ Jurkat cells and primary …; experiment: flow cytometry on human pan T cells, CD4+ gate (Alexa Fluor 647 anti-IgG-Fc, MFI)
Target sequence in this assay (P07766 23-207): as above

[6] = biological target: T3, mesothelin (MSLN) on MSLN-expressing tumor cells (human, UniProt Q13421 296-598); experiment: whole-cell flow cytometry on OVCAR-3 cells, apparent affinity
T3 construct: whole, on cells; also called native MSLN; MSLN+ H226 cells

[7] = biological target: T3, mesothelin (MSLN) on MSLN-expressing …; experiment: assay not given; matches Table 16 (OVCAR-3 cells); reference v32523
[8] = biological target: T2, CD3 on CD3+ Jurkat cells and primary …; experiment: whole-cell flow cytometry on primary human T cells, apparent affinity
Target sequence in this assay (P07766 23-207): as above

[9] = biological target: T4, MSLN (form in the assay not stated) (UniProt Q13421 296-580); experiment: method and antigen form not stated in Table 12
[10] = biological target: T3, mesothelin (MSLN) on MSLN-expressing …; experiment: cell-based or functional assay
[11] = biological target: T2, CD3 on CD3+ Jurkat cells and primary …; experiment: cell ELISA on whole CD3+ Jurkat cells (HRP anti-human IgG Fc, A 450nm)
[12] = biological target: T4, MSLN (form in the assay not stated); experiment: method not stated; reference v29191
[13] = biological target: T4, MSLN (form in the assay not stated); experiment: method not stated; reference v31805
[14] = biological target: T2, CD3 on CD3+ Jurkat cells and primary …; experiment: flow cytometry on primary human T cells, apparent affinity
[15] = biological target: T3, mesothelin (MSLN) on MSLN-expressing …
[16] = biological target: T3, mesothelin (MSLN) on MSLN-expressing …; remark: listed apart in the source
[17] = biological target: T3, mesothelin (MSLN) on MSLN-expressing …; experiment: cell-based or functional assay; remark: listed apart in the source
[18] = biological target: T2, CD3 on CD3+ Jurkat cells and primary …; experiment: whole-cell ELISA on CD3+ Jurkat cells, apparent affinity
[19] = biological target: T3, mesothelin (MSLN) on MSLN-expressing …; remark: listed apart in the source
[20] = biological target: T2, CD3 on CD3+ Jurkat cells and primary …; experiment: whole-cell ELISA on CD3+ Jurkat cells, apparent affinity; Jurkat cells
Target sequence in this assay (P07766 23-207): as above

T4 sequence (Q13421 other isoform, or with tags, fused parts or gaps limits assumed): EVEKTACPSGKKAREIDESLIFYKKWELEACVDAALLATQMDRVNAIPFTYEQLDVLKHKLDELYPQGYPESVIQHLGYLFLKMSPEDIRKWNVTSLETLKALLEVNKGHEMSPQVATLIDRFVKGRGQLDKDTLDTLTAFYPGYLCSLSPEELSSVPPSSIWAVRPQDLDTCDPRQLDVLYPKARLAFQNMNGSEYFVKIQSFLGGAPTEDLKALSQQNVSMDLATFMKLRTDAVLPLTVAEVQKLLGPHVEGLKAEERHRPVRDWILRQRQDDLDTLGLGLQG
T3 sequence (Q13421 other isoform, or with tags, fused parts or gaps limits assumed): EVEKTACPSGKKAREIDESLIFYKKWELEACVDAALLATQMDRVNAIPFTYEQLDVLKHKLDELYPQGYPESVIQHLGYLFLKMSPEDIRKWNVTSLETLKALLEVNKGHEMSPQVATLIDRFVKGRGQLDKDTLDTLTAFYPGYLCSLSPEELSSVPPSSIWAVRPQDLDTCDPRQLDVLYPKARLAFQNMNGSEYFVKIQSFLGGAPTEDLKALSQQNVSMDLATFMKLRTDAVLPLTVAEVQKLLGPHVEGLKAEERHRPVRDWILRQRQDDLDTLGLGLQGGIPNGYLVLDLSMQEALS

B1: Recombinant CD3epsilon/delta Fc fusion protein (Sino Biological) (Fc fusion)
chain 1: DGNEEMGGITQTPYKVSISGTTVILTCPQYPGSEILWQHNDKNIGGDEDDKNIGSDEDHLSLKEFSELEQSGYYVCYPRGSKPEDANFYLYLRARVCENCMEMD
chain 2: FKIPIEELEDRVFVNCNTSITWVEGTVGTLLSDITRLDLGKRILDPRGIYRCNGTDIYKDKESTVQVHYRMCQSCVELDPATVA
notes: also called recombinant CD3 fusion protein
[1]
  Kd: 0.75 nM
  koff: 0.00379 s⁻¹
[2]
  kon: 5.04e+06 M⁻¹ s⁻¹

B2: v29191, 2+1 Fab^3 TCB benchmark construct [MSLN (2 Fab) x CD3 (1 Fab)] (bispecific antibody, human IgG1, kappa, L234A L235A)
heavy 1: not shown
heavy 2: QVQLVQSGAEVKKPGASVKVSCKASGYSFTGYTMNWVRQAPGQGLEWMGLITPYNGASSYNQKFRGKATMTVDTSTSTVYMELSSLRSEDTAVYYCARGGYDGRGFDYWGQGTLVTVSSASTKGPSVFPLAPSSKSTSGGTAALGCLVEDYFPEPVTVSWNSGALTSGVHTFPAVLQSSGLYSLSSVVTVPSSSLGTQTYICNVNHKPSNTKVDEKVEPKSCDKTHTCPPCPAPEAAGGPSVFLFPPKPKDTLMISRTPEVTCVVVDVSHEDPEVKFNWYVDGVEVHNAKTKPREEQYNSTYRVVSVLTVLHQDWLNGKEYKCKVSNKALGAPIEKTISKAKGQPREPQVCTLPPSRDELTKNQVSLSCAVKGFYPSDIAVEWESNGQPENNYKTTPPVLDSDGSFFLVSKLTVDKSRWQQGNVFSCSVMHEALHNHYTQKSLSLSPG
light 1: EVQLLESGGGLVQPGGSLRLSCAASGFTFSTYAMNWVRQAPGKGLEWVSRIRSKYNNYATYYADSVKGRFTISRDDSKNTLYLQMNSLRAEDTAVYYCVRHGNFGNSYVSWFAYWGQGTLVTVSSASVAAPSVFIFPPSDEQLKSGTASVVCLLNNFYPREAKVQWKVDNALQSGNSQESVTEQDSKDSTYSLSSTLTLSKADYEKHKVYACEVTHQGLSSPVTKSFNRGEC
light 2: DIQMTQSPSSLSASVGDRVTITCSASSSVSYMHWYQQKSGKAPKLLIYDTSKLASGVPSRFSGSGSGTDFTLTISSLQPEDFATYYCQQWSKHPLTFGQGTKLEIKRTVAAPSVFIFPPSDRKLKSGTASVVCLLNNFYPREAKVQWKVDNALQSGNSQESVTEQDSKDSTYSLSSTLTLSKADYEKHKVYACEVTHQGLSSPVTKSFNRGEC
notes: also called Fab^3 benchmark
[3]
  EC50 (read off the curve): ~30 nM
[4]
  EC50 (read off the curve): ~20 nM
[5]
  EC50 (read off the curve): ~20 nM
[6]
  EC50: 0.4 nM
[7]
  fold higher relative affinity vs v32523: 7 fold
[8]
  EC50: 18.7 nM
[9]
  Affinity to MSln: 0.02 nM
[10]
  IC50 of T cell-dependent cytotoxicity on OVCAR-3 cells (pan T cells, E:T 5:1, 72 h): 0.89 pM

B3: v21812, trivalent and bispecific antibody construct [MSLN (2 scFv) x CD3 (1 Fab)] (bispecific antibody, human IgG1, lambda, L234A L235A)
heavy 1: QVQLVQSGAEVKKPGASVKVSCKASGYSFTGYTMNWVRQAPGQGLEWMGLITPYNGASSYNQKFRGKATMTVDTSTSTVYMELSSLRSEDTAVYYCARGGYDGRGFDYWGQGTLVTVSSGGGGSGGGGSGGGGSDIQMTQSPSSLSASVGDRVTITCSASSSVSYMHWYQQKSGKAPKLLIYDTSKLASGVPSRFSGSGSGTDFTLTISSLQPEDFATYYCQQWSGYPLTFGQGTKLEIKAAEPKSSDKTHTCPPCPAPEAAGGPSVFLFPPKPKDTLMISRTPEVTCVVVSVSHEDPEVKFNWYVDGVEVHNAKTKPREEQYNSTYRVVSVLTVLHQDWLNGKEYKCKVSNKALPAPIEKTISKAKGQPREPQVYVLPPSRDELTKNQVSLLCLVKGFYPSDIAVEWESNGQPENNYLTWPPVLDSDGSFFLYSKLTVDKSRWQQGNVFSCSVMHEALHNHYTQKSLSLSPG
heavy 2: not shown
light: NFMLTQPHSVSESPGKTVTISCKRNTGNIGSNYVNWYQQHEGSSPTTIIYRNDKRPDGVSDRFSGSIDRSSKSASLTISNLKTEDEADYFCQSYSSGFIFGGGTKLTVLGQPKAAPSVTLFPPSSEELQANKATLVCLISDFYPGAVTVAWKADSSPVKAGVETTTPSKQSNNKYAASSYLSLTPEQWKSHRSYSCQVTHEGSTVEKTVAPTECS
notes: also called parental construct of v32523; dual scFv trivalent variant
[11]
  EC50 (read off the curve): ~9 nM
[12]
  fold lower binding affinity vs v29191: ~45 fold
[13]
  fold lower affinity vs v31805: ~20 fold
[14]
  EC50: 58.8 nM
[15]
  Kd: ~0.47 nM
[16]
  EC50 (read off the curve): ~0.5 nM
[17]
  maximum killing of BxPC3 cells: 75%
[18]
  EC50: 17.7 nM
[9]
  Affinity to MSln: 0.9 nM
[10]
  IC50 of T cell-dependent cytotoxicity on OVCAR-3 cells (pan T cells, E:T 5:1, 72 h): 0.05 pM
[19]
  EC50: 0.4 nM

B4: v21791, trivalent and bispecific antibody construct [MSLN (2 Fab) x CD3 (1 Fab)] (bispecific antibody, human IgG1, kappa, lambda, L234A L235A)
heavy 1: not shown
heavy 2: QVQLVQSGAEVKKPGASVKVSCKASGYSFTGYTMNWVRQAPGQGLEWMGLITPYNGASSYNQKFRGKATMTVDTSTSTVYMELSSLRSEDTAVYYCARGGYDGRGFDYWGQGTLVTVSSASTKGPSVFPRAPSSKSTSGGTAALGCLVKDYFPEPVTVSWNSGALTSGVHTFPAVLQSSGLYKLSSVVTVPSSSLGTQTYICNVNHKPSNTKVDKKVEPKSCDKTHTCPPCPAPEAAGGPSVFLFPPKPKDTLMISRTPEVTCVVVSVSHEDPEVKFNWYVDGVEVHNAKTKPREEQYNSTYRVVSVLTVLHQDWLNGKEYKCKVSNKALPAPIEKTISKAKGQPREPQVYVLPPSRDELTKNQVSLLCLVKGFYPSDIAVEWESNGQPENNYLTWPPVLDSDGSFFLYSKLTVDKSRWQQGNVFSCSVMHEALHNHYTQKSLSLSPG
light 1: NFMLTQPHSVSESPGKTVTISCKRNTGNIGSNYVNWYQQHEGSSPTTIIYRNDKRPDGVSDRFSGSIDRSSKSASLTISNLKTEDEADYFCQSYSSGFIFGGGTKLTVLGQPKAAPSVTLFPPSSEQLQANKARLVCLISDFYPGAVTVAWKADSSPVKAGVETTTPSKQSNNKYAASSYLSLTPEQWKSHKSYSCQVTHEGSTVEKTVAPAECS
light 2: DIQMTQSPSSLSASVGDRVTITCSASSSVSYMHWYQQKSGKAPKLLIYDTSKLASGVPSRFSGSGSGTDFTLTISSLQPEDFATYYCQQWSGYPLTFGQGTKLEIKRTVAAPSVFIFPPSDEQLKSGTASVGCWLNNFYPREAKVQWKVDNALQSGNSQESVTEQDSKDSTYSLDSTLELSKADYEKHKVYACEVTHQGLSSPVTKSFNRGEC
notes: also called Fab^3 construct; triple-Fab construct
[14]
  EC50: 7.4 nM
[20]
  EC50: 402 nM
[16]
  EC50 (read off the curve): ~0.7 nM
[17]
  maximum killing of BxPC3 cells: 60%
[19]
  EC50: 1.9 nM
